Among the data in patent publication KR20110120890A are Kd values, retold here.

This assay deals with Her-2 (human) (UniProt P04626). The assay can be described thus: antibody titration on FFPE SKBR-3 (positive) and MDA-MB-468 (negative) cells, non-proximal direct VeraTag release with 200 uM methylene blue, multi-parameter curve fit, single site.

The Kd is the constant that tells how readily two partners part at equilibrium. Lower therefore signals higher affinity.

For the substance “Ab8-Pro11 (monoclonal antibody Ab8 against the cytoplasmic domain of HER2, Lab Vision, conjugated to VeraTag reporter Pro11)”, the Kd was found to be 8 µg/mL.
